Measurements reported in the RNAGym collection of RNA variant scans (doi:10.1073/pnas.2313332121).

B1: TPR t1 (parent)
chain: GACCAAUCUGCCCUCAGAGCUCGAGAACAUCUUCGGAUGCAGAGGAGGCAGGCUUCGGUGGCGCGAUAGCGCCAACGUCCUCAACCUCCAAUGCAUCCCACCACAUGAUGAUGCCUGAAGAGCCUUGGUUUUUUG

Variants of: B1
Test: polymerase ribozyme fitness, log enrichment relative to wild type (log ratio); higher = more active; in vitro selection for triplet polymerase activity
In short: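 Mutant libraries for each subunit of a heterodimeric triplet polymerase ribozyme were made by PCR and then transcribed. Each library underwent one round of in vitro selection in triplicate: annealing with a biotinylated primer, the partner subunit and triplets, frozen incubation at −7 °C, gel excision of extended constructs, streptavidin-bead capture and RT-PCR. Input and output libraries were Illumina-sequenced, and only genotypes with ≥10 input reads and ≥1 read per output were kept. Fitness is the logarithm, base 2, of genotype enrichment over wild-type enrichment, computed from inverse-variance-weighted replicate averages.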

Variant | polymerase ribozyme fitness (log ratio)
GACCAAUCUGCCCUCAGAGCUCGAGAACAUCUUCGGAUGCAGAGGAGGCGGGCUUCGGUGGCGUGAUAGCGCCAACGUCCUCAACCUCCAAUGCAUCCCACCACAUGAUGAUGCCUGAAGAGCCUUGGUUUUUUG [A50G C64U] | 0.0869
GACCAAUCUGCCCUCAGAGCUCGAGAACAUCUUCGGAUGCAGAGGAGGCCGGCUUCUGUGGCGCGAUAGCGCCAACGUCCUCAACCUCCAAUGCAUCCCACCACAUGAUGAUUCCUGAAGAGCCUUGGUUUUUUG [A50C G57U G113U] | -4.25
GACCAAUCUGCCCUCAGAGCUCGAGAACAUCUUCGGAUGCAGAGGAGGCCGGCUUCGGUGGCGCGAUAGCGCCAACGUCCUCAACCUCCAAUGCAUCCCACCACAUGAUGAUGCCCGAAGAGCCUUGGUUUUUUG [A50C U116C] | -1.32
GACCAAUCUGCCCUCAGAGCUCGAGAACAUCUUCGGAUGCAGAGGAGGCCGGCUUCGCUGGCGCGAUAGCGCCAACGUCCUCAACCUCCAAUGCAUCUCACCACAUGAUGAUGCCUGAAGAGGCUUGGUUUUUUG [A50C G58C C98U C123G] | 0.72
GACCAAUCUGCCCUCAGAGCUCGAGAACAUCUUCGGAUGCAGAGGAGGCCGGCUUCGGUGGCGCGAUAGUGCCAACGUCCUCAACCUCCAAUGCAUCCCACCACUUGAUGAUGCCUGAAGAGCCUUGGUUUUUUG [A50C C70U A105U] | -3.71
GACCAAUCUGCCCUCAGAGCUCGAGAACAUCUUCGGAUGCAGAGGAGGCGGGCUUCUGUGGCGCGAUAGCGCCAACGUACUCAACCUCCAAUGCAUCCCACCACAUGAUGAUGCAUGAAGAGCCUUGGUUUUUUG [A50G G57U C79A C115A] | -1.84
GACCAAUCUGCCCUCAGAGCUCGAGAACAUCUUCGGAUGCAGAGGAGGCGGGCUUCGGUGGCGCGAUAGCGCCAACGUCCUAAACCUCCAAUGCAUCCCACCACAUGAUGAUGCCUGAAUAGCCUUGGUUUUUUG [A50G C82A G120U] | -0.452
GACCAAUCUGCCCUCAGAGCUCGAGAACAUCUUCGGAUGCAGAGGAGGCCGGCUUCGGUGGCGCGAUAGCGCCAACGUCCUCAACCUCCAAGGCAUCCCACCACAUGAUGAAGCCUGAAGAGCCUUGGUUUUUUA [A50C U92G U112A G135A] | -3.14
GACCAAUCUGCCCUCAGAGCUCGAGAACAUCUUCGGAUGCAGAGGAGGCGGGCUUGGGUGGCGCGAUAGCGCCAACGUCCUCAACCUCCAAUGCAUCCCACCCCAUGAUGAUGCGUGAAGAGCCUUGGUUUUUUG [A50G C56G A103C C115G] | -5.53
GACCAAUCUGCCCUCAGAGCUCGAGAACAUCUUCGGAUGCAGAGGAGGCCGGCUUCGGUGGCGCGAUAGCGCCAACGUCCUCAACCUCCAAUGCAUCCCACCACAUGAUGAUGCCUGAAGAGACUUGGUUUUUUG [A50C C123A] | -0.166
GACCAAUCUGCCCUCAGAGCUCGAGAACAUCUUCGGAUGCAGAGGAGGCGGGCUUCGGUGGCGCGAUAGCGCCAACGUCCUCAACCUCCAAUGCAUCCCACCACAUGAUUAUGCCUGAAGAGCCUUGGUUUUUUG [A50G G110U] | -0.639
GACCAAUCUGCCCUCAGAGCUCGAGAACAUCUUCGGAUGCAGAGGAGGCCGCCUUGGGUGGCACGAUAGCGCCAACUUCCUCAACCUCCAAUGCAUCCCACCACAUGAUGAUGCCUGAAGAGCCUUGGUUUUUUG [A50C G52C C56G G63A G77U] | -6.51
GACCAAUCUGCCCUCAGAGCUCGAGAACAUCUUCGGAUGCAGAGGAGGCGGGCUUCGGUGGCGUGAUAGCGCCAACGUCCUCAUCCUCCAAUGCAUCCCACCACAUGAUGAUGCCUGAAGAGCCUUGGUUUUUUG [A50G C64U A84U] | -0.379
GACCAAUCUGCCCUCAGAGCUCGAGAACAUCUUCGGAUGCAGAGGAGGCCGGCUUCGGUGGCGCGAUAGCGCCAACGUCCUCAACCUCCAAUGCAUCCCACCACAUGAUGAUGCCUGAAGAGCCAUGGUUUUUUG [A50C U125A] | -0.974
GACCAAUCUGCCCUCAGAGCUCGAGAACAUCUUCGGAUGCAGAGGAGGCGGGCUUCGGUGGCGCGAUAGCGCCAACGUCCUCAACCUCCAAUGCAUCCCACCACAUGAUGAUGCCUGAAGAGACUUGGUUUUUUG [A50G C123A] | 0.295
GACCAAUCUGCCCUCAGAGCUCGAGAACAUCUUCGGAUGCAGAGGAGGCGGGCUUCGGUGGCGCGAUAGCGCCAACGUCCUCAAGCUCCAAUGCAUCCCACCACAUGAUGAUGCCUGAAGAGCCUUGGUUUUUUG [A50G C85G] | -0.79
GACCAAUCUGCCCUCAGAGCUCGAGAACAUCUUCGGAUGCAGAGGAGGCGGGCUUCGGUGGCUCGAUAGCGCCAACGUCCUCAACCUCCAAUGCAUCCCAGCACAUGAUGAUGCCUGAACAGCCUUGGUGUUUUG [A50G G63U C101G G120C U130G] | -3.55
GACCAAUCUGCCCUCAGAGCUCGAGAACAUCUUCGGAUGCAGAGGAGGCCGGCUUCGGUGUCGCGAUAGCGCCAACGUCCUCAACCUCCAAUGCAUCCCACCACAUGAUGAUGCCUGAAGAGCCUUGGUUUUUUG [A50C G61U] | -0.0844
GACCAAUCUGCCCUCAGAGCUCGAGAACAUCUUCGGAUGCAGAGGAGGCCGGCUUCGGUGGCGCGAUAGCGUCAACUUCCUCAACCUCCAAUGCAUCCAACCACAUGAUGAUGCCAGAACAGUCUUGGUUUUUUG [A50C C72U G77U C99A U116A G120C C123U] | -8.09
GACCAAUCUGCCCUCAGAGCUCGAGAACAUCUUCGGAUGCAGAGGAGGCCGGCUUCGGUGGCGCGAUAGCGCCAACGUCCUCAACCUCCAAUGCAUCCCACCACAUGAUGAUGCCAGAAGAGCCUUGGUUAUUUG [A50C U116A U131A] | -3.32
GACCAAUCUGCCCUCAGAGCUCGAGAACAUCUUCGGAUGCAGAGGAGGCGGGCUUCGGUGGCGCGAUAUCGCCAACGUCCUCAACGUCCAAUGCAUCCCACCACAUGAUGAUGCCUGAAGAGCCUUGGUUUUUUG [A50G G69U C86G] | -0.754

Variant | polymerase ribozyme fitness (log ratio)
GACCAAUCUGCCCUCAGAGCUCGAGAACAUCUUCGGAUGCAGAGGAGGCGGGCUUCGGUGGCGCGAUAGCGCCAACGUGCUCAACCGCCAAUGCAUCCCACCACAUGAUGAUGCCUGAAGAGCCUUGGUUUUUUG [A50G C79G U87G] | -0.314
GACCAAUCUGCCCUCAGAGCUCGAGAACAUCUUCGGAUGCAGAGGAGGCGGGCUUCGGUGGCGCGGUAGCGCUAACGUCCUCAACAUCCAAUGCAUCCCACCACAUGAUGAUGCGUGAAGAGCCUUGGUUUUUUG [A50G A66G C73U C86A C115G] | -4.26
GACCAAUCUGCCCUCAGAGCUCGAGAACAUCUUCGGAUGCAGAGGAGGCGGGCUUCGGUGGCGCGAUAGCGCCAUCGUCUACAACCUCCAAUGCAUCCCACCACAUGAUGAUGUCUGAAGAGCCUUGGUUUUCUG [A50G A75U C80U U81A C114U U133C] | -4.62
GACCAAUCUGCCCUCAGAGCUCGAGAACAUCUUCGGAUGCAGAGGAGGCCGGCUUCGGUGGCGCGAUAGAGCCAACGUCCUCAACCUCCAAUGCAUCCCACCACAUGAUGAUGCCUGAAGAGCCUUGGUUUUUUG [A50C C70A] | -2.58
GACCAAUCUGCCCUCAGAGCUCGAGAACAUCUUCGGAUGCAGAGGAGGCCGGCUUCGGUGGCGCGAUAGCGCCAACGUCCUCAACCUACAAUGCAUCCCACCACAUGAUGAUGCCUGAAGAGCCUUGGUCUUAUG [A50C C88A U130C U133A] | -0.495
GACCAAUCUGCCCUCAGAGCUCGAGAACAUCUUCGGAUGCAGAGGAGGCGUGCUUCGGUGGCGCGAUAGCGCCAACGUCCUCAACCUCAAAUGCAUCCCACCACAUGAUGAUGCCUGAAGAGCUUUGGUUUUUUG [A50G G51U C89A C124U] | -4.23
GACCAAUCUGCCCUCAGAGCUCGAGAACAUCUUCGGAUGCAGAGGAGGCGGCCUUCGGUGGCGCGAUAGCUCCAACGUACUCAACCUCCAAUGCAUCCCACCACAUGAUUAUGCCUGAAGAGCCUUGGUUUUUUG [A50G G52C G71U C79A G110U] | -4.97
GACCAAUCUGCCCUCAGAGCUCGAGAACAUCUUCGGAUGCAGAGGAGGCCGGCUUCGGUGGCGCGAUAGCGCCAACGUCCUCAACCUCUAAUGCAUCCCACCACAUGAUGAUGCCUGAAGAGCCUUGGUUUUUUG [A50C C89U] | -1.06
GACCAAUCUGCCCUCAGAGCUCGAGAACAUCUUCGGAUGCAGAGGAGGCCGGCUUCGGUGGCGCGAUAGCGCCAACGUCCUCAACCUCCAAUGCAUCCCACCACAUGAUGAUGCCUGAAGAGCAUUGGUUUUUUG [A50C C124A] | 0.557
GACCAAUCUGCCCUCAGAGCUCGAGAACAUCUUCGGAUGCAGAGGAGGCGGGCUUCGGUGGCGCGAUAGCGCCAACGUCCUCAACCUCCAAUCCAUCCCACCACAUGAAGAUGCCUCAAGAGCCUUGGUUUUUUG [A50G G93C U109A G117C] | -6.26
GACCAAUCUGCCCUCAGAGCUCGAGAACAUCUUCGGAUGCAGAGGAGGCGGGCUUCGGUGGCGCGAUAGCACCAACGUCCUCAACCUCCAAUGCAUCCCACCACAUGAUGAUGCCUGAAGAGCCUUGGUUUUUUG [A50G G71A] | -1.41
GACCAAUCUGCCCUCAGAGCUCGAGAACAUCUUCGGAUGCAGAGGAGGCGGGCUUCGGUGGCGCGAUAGCGCCAACGUCCUCAACCUCCAAUGCAUCCCACCACCUGAUGAUGCCUGAAGAGCCUUGGUUUUUUG [A50G A105C] | -2.43
GACCAAUCUGCCCUCAGAGCUCGAGAACAUCUUCGGAUGCAGAGGAGGCGGGCUUCGGUGGCGCGAUAGCGCCAACGUCGUCGACCUCCAAUGCAUCCCACCACAUGAUGAUGCCUGAACAGCCUUGGUUUUUUG [A50G C80G A83G G120C] | -6.33
GACCAAUCUGCCCUCAGAGCUCGAGAACAUCUUCGGAUGCAGAGGAGGCCGGCUUCGGUGGCGCGAUAGCGCCAACGUCCUCAACCUCCAAUGCAUCCCACCACAUGAUGAUGCCUUAAGAGCCUUGGUUUUUUG [A50C G117U] | -2.95
GACCAAUCUGCCCUCAGAGCUCGAGAACAUCUUCGGAUGCAGAGGAGGCGAGCUUCGGUGGCGCGAUAGCGCCAACGUCCUCAACCUCCAAUGCAUCCCACCACAUGAUGAUGCCUGAAGAGCCUUGGUUUUUUG [A50G G51A] | -1.11
GACCAAUCUGCCCUCAGAGCUCGAGAACAUCUUCGGAUGCAGAGGAGGCCGGCUUCGGUGGCGCGAUAACGCCAACGCCCUCAACCUCCAAUGCAUUCCACCACAUGAUGAUGCCUGAAGAGCCUUGGUUUUUUG [A50C G69A U78C C97U] | -4.07
GACCAAUCUGCCCUCAGAGCUCGAGAACAUCUUCGGAUGCAGAGGAGGCGGGCUUCGGUGGCGCGAUAGCGCCAACGUCCUCAACCUCAAAUGCAUCCCACCACAUGAUGAUGCCUGAAGAGCCUUGGUUUUUUG [A50G C89A] | -1.48
GACCAAUCUGCCCUCAGAGCUCGAGAACAUCUUCGGAUGCAGAGGAGGCGGACUUCGGUGGCGCGAUAGCGCCAACGUCCUCAACCUCCAAUGCAUCCCACCACAUGAUGAUGCCUGAAGAGCCUUGGUUUUUUG [A50G G52A] | 0.186
GACCAAUCUGCCCUCAGAGCUCGAGAACAUCUUCGGAUGCAGAGGAGGCGGGCUUCGGUGGCGCGAUAGCGCAAACGUCCUCAACCUCCAAUGCAUCCCACCACAGGAUGAUGCCUGAAGAGCCUUGGUUUUUUG [A50G C73A U106G] | -1.39
GACCAAUCUGCCCUCAGAGCUCGAGAACAUCUUCGGAUGCAGAGGAGGCCGGCUUCUGUGGCGCGAUAACGCCAACGUCCUCAACCUCCAAUGCAUCCCACCACAUGAUGAUGCCUGAAAAGCCUUAGUUUUUUG [A50C G57U G69A G120A G127A] | -3.95
GACCAAUCUGCCCUCAGAGCUCGAGAACAUCUUCGGAUGCAGAGGAGGCGGGCUUCGGUGGCUCGGUAGCGCCAACGUCCUCAACCUCCAAUGCAUCCCACCACAUGAUGAUGCCUGAAGAGCCUUGGUAUUUUG [A50G G63U A66G U130A] | -4.03
